Ends that are not written are not given here.
T1: His-tagged P3028 (PGE73) (human, also: His tag, length and end not given here)
T1 construct: the tag is put first here only for want of a statement; also called His-tag-P3028; not shown: His tag
T1 peptide: VFDEFKPLVEEPQNLIK

B1: SEQ ID NO 9 (peptide)
peptide: KKLDTFMVKLSLFTER
notes: on PEPSCAN card; also called P28R with M in position 7
B2: SEQ ID NO 15 (peptide)
peptide: KKLDTFFVKLQLFTER
notes: on PEPSCAN card; also called P28R with Q in position 11
B3: SEQ ID NO 23 (peptide)
peptide: KKLDTFFVKLSLQTER
notes: on PEPSCAN card; also called P28R with Q in position 13
B4: SEQ ID NO 10 (peptide)
peptide: KKLDTFSVKLSLFTER
notes: on PEPSCAN card; also called P28R with S in position 7
B5: SEQ ID NO 24 (peptide)
peptide: KKLDTFFVKLSLHTER
notes: on PEPSCAN card; also called P28R with H in position 13
B6: SEQ ID NO 16 (peptide)
peptide: KKLDTFFVKLMLFTER
notes: on PEPSCAN card; also called P28R with M in position 11
B7: SEQ ID NO 22 (peptide)
peptide: KKLDTFFVKLSLMTER
notes: on PEPSCAN card; also called P28R with M in position 13
B8: SEQ ID NO 25 (peptide)
peptide: KKLDTFFVKLSLNTER
notes: on PEPSCAN card; also called P28R with N in position 13

biological target: Artificial Cell Surface (ACS): biotinylated cell surface proteins of human PBMCs bound to a streptavidin column (human); assay: adsorption on ACS column, MALDI-TOF ms

Percent Absorbed [%] | Binder
100 | VFLGMFLYEYARRHPDYSVVLLLRLAKTYETTLEKCCAAA [Asp-N-generated albumin fragment, SEQ ID NO 227]
86 | DETYVPKEFNAETFTHA [Asp-N-generated albumin fragment, SEQ ID NO 220]
100 | ICTLSEKERQIKKQTALVELVKHKPKATKEQLKAVM [Asp-N-generated albumin fragment, SEQ ID NO 225]
1 | DDNPNLPR [Trypsin-generated albumin fragment, SEQ ID NO 216]
65 | DKLCTVATLRETYGEM [Asp-N-generated albumin fragment, SEQ ID NO 222]
37 | YLSVVLNQLCVLHEKTPVSDRVTKCCCTESLVNRRPFSALEV [Asp-N-generated albumin fragment, SEQ ID NO 230]
3 | YICENQDSISSK [Trypsin-generated albumin fragment, SEQ ID NO 214]
100 | DDKETCFAEEGKKLVAASQAALGL [Asp-N-generated albumin fragment, SEQ ID NO 218]
2 | LDELRDEGK [Trypsin-generated albumin fragment, SEQ ID NO 215]
22 | NECFLQHK [Trypsin-generated albumin fragment, SEQ ID NO 209]
87 | DRVTKCCTESLVNRRPCFSALEV [Asp-N-generated albumin fragment, SEQ ID NO 219]
100 | LAKYICENQDSISSKLKECCEKPLLEKHCIAEVEN [Asp-N-generated albumin fragment, SEQ ID NO 226]
100 | RVTKCCTESLVNRRPCFSALEVDETYVPKEFNAETFTFHA [Asp-N-generated albumin fragment, SEQ ID NO 229]
100 | DHVKLVNEVTEFAKTCVA [Asp-N-generated albumin fragment, SEQ ID NO 217]
65 | DSISSKLKECCEKPLLEKSHCIAEVEN [Asp-N-generated albumin fragment, SEQ ID NO 221]
100 | YSVVLLLRLAKTYETTLEKCCAAADPHECYAKVF [Asp-N-generated albumin fragment, SEQ ID NO 223]
100 | LGEENFKALVLIAFAQYLQQCPFEDHVKLVNEVTEFAKTCVA [Asp-N-generated albumin fragment, SEQ ID NO 228]
8 | FKDLGEENFK [Trypsin-generated albumin fragment, SEQ ID NO 213]
18 | QEPERNECFLQHK (not fully specified) [Trypsin-generated albumin fragment, SEQ ID NO 211]
13 | VHTECCHGDLLECADDR [Trypsin-generated albumin fragment, SEQ ID NO 212]
100 | KLCTVATLRETYGEMADCCAKQEPERNECFLQHK [Asp-N-generated albumin fragment, SEQ ID NO 224]

biological target: Artificial Cell Surface (ACS); assay: ACS column adsorption of Asp-N-digested dHSA, MALDI-TOF MS

Percent Absorbed [%] | Binder
100 | VFLGMFLYEYARRHPDYSVVLLLRLAKTYETTLEKCCAAA [… LEKCCAAA (Asp-N-generated albumin fragment, SEQ ID NO: 227)]
100 | ICTLSEKERQIKKQTALVELVKHKPKATKEQLKAVM [… (Asp-N-generated albumin fragment, SEQ ID NO: 225)]
100 | DHVKLVNEVTEFAKTCVA [… (Asp-N-generated albumin fragment, SEQ ID NO: 217)]
37 | YLSVVLNQLCVLHEKTPVSDRVTKCCCTESLVNRRPFSALEV [… (Asp-N-generated albumin fragment, SEQ ID NO: 230)]
65 | DSISSKLKECCEKPLLEKSHCIAEVEN [… (Asp-N-generated albumin fragment, SEQ ID NO: 221)]
65 | DKLCTVATLRETYGEM [… (Asp-N-generated albumin fragment, SEQ ID NO: 222)]
100 | DDKETCFAEEGKKLVAASQAALGL [… (Asp-N-generated albumin fragment, SEQ ID NO: 218)]
100 | LAKYICENQDSISSKLKECCEKPLLEKHCIAEVEN [… (Asp-N-generated albumin fragment, SEQ ID NO: 226)]
100 | RVTKCCTESLVNRRPCFSALEVDETYVPKEFNAETFTFHA [… (Asp-N-generated albumin fragment, SEQ ID NO: 229)]
86 | DETYVPKEFNAETFTHA [… (Asp-N-generated albumin fragment, SEQ ID NO: 220)]
100 | YSVVLLLRLAKTYETTLEKCCAAADPHECYAKVF [… (Asp-N-generated albumin fragment, SEQ ID NO: 223)]
100 | LGEENFKALVLIAFAQYLQQCPFEDHVKLVNEVTEFAKTCVA [… (Asp-N-generated albumin fragment, SEQ ID NO: 228)]
87 | DRVTKCCTESLVNRRPCFSALEV [… (Asp-N-generated albumin fragment, SEQ ID NO: 219)]
100 | KLCTVATLRETYGEMADCCAKQEPERNECFLQHK [… (Asp-N-generated albumin fragment, SEQ ID NO: 224)]

Biological target: T1, His-tagged P3028 (PGE73)
Assay: PEPSCAN ELISA: peptide on chip, His-tagged P3028 in solution, anti-His mAb and rampo conjugate
Procedure: After washing, the peroxidase substrate 2,2′-azine-di-3-ethylbenzthiazoline sulfonate (ABTS) and 2 μL of 3% H2O2 were added. The binding capacity of the mAb was measured as a color development at 405 nm (optical density, OD405). The color development was quantified with a charge-coupled device (CCD)—camera and an image processing system.
The OD405-values obtained by a CCD-camera was considered as raw data values (“rampo values,” “rampo units,” or “rampo scores”). […] First the CCD-camera made a picture of the card before peroxidase coloring and then again a picture after the peroxidase coloring. […] These values were copied into an excel file and labeled as a raw data file. […] Sometimes a well can contain an air-bubble resulting in a false-positive value. If manual inspection of the cards detect an air-bubble the value are set to 0 for well.

rampo value [rampo units] | Binder
> 700 | B1
> 700 | B2
> 800 | B3
> 700 | B4
> 800 | B5
> 700 | B6
> 800 | B7
> 800 | B8

biological target: Artificial Cell Surface (ACS); assay: ACS column adsorption of trypsin-digested dHSA, MALDI-TOF MS

Percent Absorbed [%] | Binder
35 | LCTVATLR [LCTVATLR (trypsin-generated albumin fragment, SEQ ID NO: 202)]
23 | AVMDDFAAFVEK [… (trypsin-generated albumin fragment, SEQ ID NO: 208)]
3 | YICENQDSISSK [… (trypsin-generated albumin fragment, SEQ ID NO: 214)]
25 | QEPERNECFLQHK (not fully specified) [… (trypsin-generated albumin fragment, SEQ ID NO: 207)]
34 | YLYEIAR [YLYEIAR (trypsin-generated albumin fragment, SEQ ID NO: 203)]
26 | CCTESLVNR [… (trypsin-generated albumin fragment, SEQ ID NO: 206)]
29 | AAFTECCQAADK [… (trypsin-generated albumin fragment, SEQ ID NO: 205)]
2 | LDELRDEGK [… (trypsin-generated albumin fragment, SEQ ID NO: 215)]
42 | RPCFSALEVDETYVPK [… (trypsin-generated albumin fragment, SEQ ID NO: 198)]
8 | FKDLGEENFK [… (trypsin-generated albumin fragment, SEQ ID NO: 213)]
18 | QEPERNECFLQHK (not fully specified) [… (trypsin-generated albumin fragment, SEQ ID NO: 211)]
71 | KYLYEIAR [KYLYEIAR (trypsin-generated albumin fragment, SEQ ID NO: 194)]
36 | LKECCEKPLLEK [… (trypsin-generated albumin fragment, SEQ ID NO: 201)]
32 | CCAAADPHECYAK [… (trypsin-generated albumin fragment, SEQ ID NO: 204)]
64 | KVPQVSTPTLVEVSR [… (trypsin-generated albumin fragment, SEQ ID NO: 195)]
41 | FQNALLVR [FQNALLVR (trypsin-generated albumin fragment, SEQ ID NO: 199)]
60 | VFDEFKPLVEEPQNLIK [… (trypsin-generated albumin fragment, SEQ ID NO: 196)]
13 | VHTECCHGDLLECADDR [… (trypsin-generated albumin fragment, SEQ ID NO: 212)]
36 | SLHTLFGDK [… (trypsin-generated albumin fragment, SEQ ID NO: 200)]
22 | NECFLQHK [NECFLQHK (trypsin-generated albumin fragment, SEQ ID NO: 209)]
59 | VPQVSTPTLVEVSR [… (trypsin-generated albumin fragment, SEQ ID NO: 197)]
1 | DDNPNLPR [DDNPNLPR (trypsin-generated albumin fragment, SEQ ID NO: 216)]

Reference: US20180177842A1 (CANIMGUIDE THERAPEUTICS, published 2018)
